# Measured values reported in paper PMC4780765, “Role of Interaction and Nucleoside Diphosphate Kinase B in Regulation of the Cystic Fibrosis Transmembrane Conductance Regulator Function by cAMP-Dependent Protein Kinase A” (PLoS ONE, 2016).
# What was measured:
# [1] = target: T1, cystic fibrosis transmembrane conductance regulator (human (endogenous in 16HBE14o-), UniProt P13569 1-1480); experiment: far-Western, overlay or dot blot; blot of a CFTR immunoprecipitate or of 16HBE14o- membrane proteins, 100 μg, overlaid with 1 μg recombinant NDPK-B without or with cAMP or 8-Br-cAMP (100 μM); probed for NDPK-B; conditions: one partner purified
# T1 construct: CFTR, endogenous in the wild type human bronchial epithelial cell line 16HBE14o-; band at 175 kDa; also called CFTR; ABCC7; source: endogenous, 16HBE14o- cells (membrane fraction, lysates, immunoprecipitates)
# [2] = target: T1, cystic fibrosis transmembrane …; experiment: co-IP; CFTR or NDPK-B immunoprecipitates from 16HBE14o- membranes; cells untreated, treated with FSK (10 μM)/IBMX (100 μM) for 30 min, or with PKI (100 nM) or H-89 (1 μM) for 5 min before FSK/IBMX; conditions: partners not purified
# [3] = target: T1, cystic fibrosis transmembrane …; experiment: far-Western, overlay or dot blot; blot of SDS-PAGE-separated 16HBE14o- membrane proteins (100 μg) overlaid with 16HBE14o- cytosol proteins (0.5 mg) in TBS with 5% milk, 60 min at room temperature, without or with cAMP, 8-Br-cAMP or dioctanoyl-cAMP (100 μM); probed for NDPK-B; conditions: partners not purified
# T1 sequence (P13569 whole entry): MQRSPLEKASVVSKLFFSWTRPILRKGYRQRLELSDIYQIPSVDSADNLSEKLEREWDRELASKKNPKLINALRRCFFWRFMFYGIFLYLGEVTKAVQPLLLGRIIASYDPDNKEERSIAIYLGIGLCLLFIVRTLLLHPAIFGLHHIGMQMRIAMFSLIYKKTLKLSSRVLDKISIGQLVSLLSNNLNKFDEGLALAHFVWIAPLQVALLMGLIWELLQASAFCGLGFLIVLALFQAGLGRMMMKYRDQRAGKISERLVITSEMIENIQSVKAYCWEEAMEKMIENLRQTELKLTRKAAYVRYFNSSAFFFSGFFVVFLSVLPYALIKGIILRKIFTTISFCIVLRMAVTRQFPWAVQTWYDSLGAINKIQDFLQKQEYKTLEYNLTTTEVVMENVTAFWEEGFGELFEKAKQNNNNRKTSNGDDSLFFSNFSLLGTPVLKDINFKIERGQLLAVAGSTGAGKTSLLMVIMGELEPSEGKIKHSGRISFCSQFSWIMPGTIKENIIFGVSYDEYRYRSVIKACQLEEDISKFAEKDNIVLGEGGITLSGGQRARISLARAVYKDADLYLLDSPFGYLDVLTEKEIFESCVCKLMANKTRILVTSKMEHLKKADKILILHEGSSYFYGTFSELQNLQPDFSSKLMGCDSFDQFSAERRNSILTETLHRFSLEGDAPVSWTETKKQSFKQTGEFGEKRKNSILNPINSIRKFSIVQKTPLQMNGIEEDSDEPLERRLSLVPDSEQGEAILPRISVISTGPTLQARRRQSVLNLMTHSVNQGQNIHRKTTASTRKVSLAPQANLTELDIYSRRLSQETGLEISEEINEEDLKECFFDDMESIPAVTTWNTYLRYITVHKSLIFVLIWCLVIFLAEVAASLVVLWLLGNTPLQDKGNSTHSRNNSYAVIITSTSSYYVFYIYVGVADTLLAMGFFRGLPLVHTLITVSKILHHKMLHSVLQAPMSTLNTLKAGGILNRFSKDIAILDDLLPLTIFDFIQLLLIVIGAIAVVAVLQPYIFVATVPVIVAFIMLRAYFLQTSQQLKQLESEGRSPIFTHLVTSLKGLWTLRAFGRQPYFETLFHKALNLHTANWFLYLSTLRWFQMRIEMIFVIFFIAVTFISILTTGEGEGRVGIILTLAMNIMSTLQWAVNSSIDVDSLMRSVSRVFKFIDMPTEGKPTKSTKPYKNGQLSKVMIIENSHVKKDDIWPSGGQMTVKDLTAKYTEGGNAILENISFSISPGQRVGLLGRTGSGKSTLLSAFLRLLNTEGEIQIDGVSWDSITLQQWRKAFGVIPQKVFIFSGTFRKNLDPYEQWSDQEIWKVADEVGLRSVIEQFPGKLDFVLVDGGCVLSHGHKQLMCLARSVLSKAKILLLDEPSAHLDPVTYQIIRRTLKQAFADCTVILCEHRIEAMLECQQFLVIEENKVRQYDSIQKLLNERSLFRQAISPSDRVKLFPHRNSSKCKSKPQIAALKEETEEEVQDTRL
binder,measurement,setting,value
"human recombinant nucleoside diphosphate kinase B isoform (natural protein, human recombinant nucleoside diphosphate kinase B (NDPK-B, NM23-H2); 16 kDa on the gel; also called NDPK-B; purified NDPK-B; source: recombinant, purified; prepared and provided by Professor Ioan Lascu) ANLERTFIAIKPDGVQRGLVGEIIKRFEQKGFRLVAMKFLRASEEHLKQHYIDLKDRPFFPGLVKYMNSGPVVAMVWEGLNVVKTGRVMLGETNPADSKPGTIRGDFCIQVGRNIIHGSDSVKSAEKEISLWFKPEELVDYKSCAHDWVYE",fold increase of NDPK-B staining at 175 kDa with 8-Br-cAMP (100 μM) over overlay without cAMP,[1],20 fold
"nucleoside diphosphate kinase B (natural protein, human (endogenous in 16HBE14o-), UniProt P22392 1-152, looked up, nucleoside diphosphate kinase B (NDPK-B, NM23-H2), endogenous in the human bronchial epithelial cell line 16HBE14o-; also called NDPK-B; NDPK B; source: endogenous, 16HBE14o- cells (membrane and cytosol fractions, lysates)) MANLERTFIAIKPDGVQRGLVGEIIKRFEQKGFRLVAMKFLRASEEHLKQHYIDLKDRPFFPGLVKYMNSGPVVAMVWEGLNVVKTGRVMLGETNPADSKPGTIRGDFCIQVGRNIIHGSDSVKSAEKEISLWFKPEELVDYKSCAHDWVYE",fold increase of co-immunoprecipitation with FSK/IBMX over untreated cells,[2],3 fold
same,fold increase of NDPK-B staining at 175 kDa with dioctanoyl cAMP (100 μM) over overlay without cAMP,[3],20 fold
